The values below come from publication PMC2676576.

Experiment [1] deals with STAM(300-387) of ESCRT-0 core construct b (human) (UniProt Q92783). The experiment can be described thus: SDS-PAGE and mass spectrometry of dissolved crystals.
Experiment [2] has as its target recombinant full-length human STAM of the full-length ESCRT-0 complex (human) (UniProt Q92783). The experiment can be described thus: AUC.
The target is the same in experiment [3]. The experiment can be described thus: SEC-MALS. On the technique in general: In gel filtration, larger molecules generally elute earlier.

Chain of recombinant full-length human STAM of the full-length ESCRT-0 complex (human) (Q92783 whole entry, one chain of several): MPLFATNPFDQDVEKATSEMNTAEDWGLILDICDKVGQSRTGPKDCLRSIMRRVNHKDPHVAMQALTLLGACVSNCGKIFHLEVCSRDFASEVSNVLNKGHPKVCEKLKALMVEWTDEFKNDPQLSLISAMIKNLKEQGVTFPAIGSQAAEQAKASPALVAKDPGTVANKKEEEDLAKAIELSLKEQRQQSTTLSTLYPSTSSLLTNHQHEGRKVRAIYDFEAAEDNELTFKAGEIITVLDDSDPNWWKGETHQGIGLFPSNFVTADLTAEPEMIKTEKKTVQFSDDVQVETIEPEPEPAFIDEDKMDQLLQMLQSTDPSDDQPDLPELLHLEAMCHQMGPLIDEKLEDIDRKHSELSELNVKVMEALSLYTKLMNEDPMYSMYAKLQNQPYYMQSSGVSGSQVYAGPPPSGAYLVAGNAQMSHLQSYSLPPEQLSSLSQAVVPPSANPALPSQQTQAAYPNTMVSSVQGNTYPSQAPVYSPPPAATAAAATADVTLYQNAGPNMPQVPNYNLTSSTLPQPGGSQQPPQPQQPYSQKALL
Chain of Hrs(398-557) of ESCRT-0 core construct b (O14964 398-514): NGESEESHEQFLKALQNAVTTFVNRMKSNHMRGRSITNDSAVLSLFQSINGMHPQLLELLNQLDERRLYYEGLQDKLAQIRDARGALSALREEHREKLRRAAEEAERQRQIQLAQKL

For the substance “Hrs(398-557) of ESCRT-0 core construct b (from UniProt O14964 398-557) (domain or fragment)”, in experiment [1], the stoichiometry N is 1 Hrs:STAM.
Take “recombinant full-length Hrs (mouse Hrs gene) of the full-length ESCRT-0 complex (from UniProt Q99LI8 1-775) (natural protein)”: the stoichiometry N in experiment [2] and in experiment [3] was 1 Hrs:STAM in each case.

By stoichiometry N is commonly meant a count of units in the complex or per binding partner.
